Reference: paper PMC2824758

Molecular target: CD81 large external loop (LEL) (UniProt P60033)
Chain of UniProt P60033 (P60033 113-201): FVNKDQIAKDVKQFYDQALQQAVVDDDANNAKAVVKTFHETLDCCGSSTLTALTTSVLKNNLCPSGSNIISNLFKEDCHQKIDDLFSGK

HCV E2 ectodomain (E2e), isolate UKN2b_2.8, genotype 2b (domain or fragment)
inhibition of infection of Huh-7.5 cells by HCVcc (infected foci, HCV core immunofluorescence), cells preincubated with 0.05 to 2 µM HCV E2e; 10% inhibition at 0.05 µM: 90%
